# From article PMC11813103, “Interaction of cardiac leiomodin with the native cardiac thin filament” (PLOS Biology, 2025)
# B1: Lmod2[387–426] (peptide)
# peptide: WQRGTPGSSPYASPRQSPWSSPKVSKKVHTGRSRPPSPVA
# notes: also called C-terminal Lmod2 fragment between the LRR domain and the polyP region; source: synthetic peptide (Tufts University Core Facility)
# B2: Lmod2[518–543] (peptide)
# peptide: STPQRSVHENLMEAIRGSSIRQLRRV
# notes: also called Lmod2 fragment containing the WH2 domain; source: synthetic peptide (Tufts University Core Facility)
# B3: Lmod2[451–492] (peptide)
# peptide: PLPEKKLITRNIAEVIKQQESAQRALQNGQRKKKGKKVKKQP
# notes: also called C-terminal Lmod2 fragment after the polyP region; source: synthetic peptide (Tufts University Core Facility)
# Target: G-actin (UniProt P68135 1-377)
# Test: native gel or EMSA; 9% polyacrylamide, 10% glycerol, no SDS; fragments mixed with 5 μM G-actin at 1:2, 1:1, 1.5:1 and 2:1 molar ratios (Lmod2[518–543] at 2:1 only); densitometry of the actin band
# Details: both partners purified
row,Binder,percent of the actin in complex at a 2:1 fragment to actin molar ratio
1,B1,~70%
2,B2,~90%
3,B3,~60%
